Assay: yeast display, Sf9 membrane polyspecificity reagent, FACS + sequencing; frameworks hold sequencing errors
How it was run: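 Galactose-induced (36–48 hours) yeast carrying a synthetic nanobody display library were exposed to 10% biotinylated, detergent-solubilized Sf9 membrane reagent at 4 °C for 1 hour. FACS followed streptavidin microbead enrichment, using low and high (top ~1%) gates for expression (anti-HA) and reagent binding (streptavidin). Colony PCR, MiSeq 2 × 250 sequencing and CDR-length filtering followed. Labels for polyreactivity reflect the gate of origin.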

Sequence: QVQLVESGGGLVQAGGSLRLSCAASGSIIAAYAMGWYRQAPGKERELVAAIRWNGGSTYYADSVKGRFTISRDNAKNTVYLQMISLKPEDTAVFYCAADYIYYPVYEFGYWGQGTQVTVSS
- polyreactivity (PSR sort gate): low polyreactivity

Sequence: QVQLVESGGGLVQAGGSLRLSCAASGSTCFHYSMGWYRQAPGKERELVAAITGTGRTTYADSVKGRFTISRDNAKTTVYLQMNSLKPEDTAVYYCAADVNYYQHRLYYWGQGTQVTVSS
- polyreactivity (PSR sort gate): low polyreactivity

Sequence: QVQLVESGGGLVQAGGSLRLICAASGRIFYGYAMGWYRPAPGKEREFVAAITVSAGSTYYADSVKGRFTISRDNAKNTVYLQMNSLKPEDTAVYYCAAKRYVYPSYRFDYWGQGTQVTVSS
- polyreactivity (PSR sort gate): low polyreactivity

Sequence: HVQLVESGGGLVQAGGSLRLSCAASGSTFKRNTMGWYRQAPGKERELVAAISRSGGSTYYADSVKGRFTISRDNAKNTVYLQMNSLKPEDTAVYYCNAYVSSYVGSRSYGLSPYDYWGQGTQVTVSS
- polyreactivity (PSR sort gate): high polyreactivity

Sequence: QDQLVESGGGLVQAGGSLRLSCAASGSTFYRYAMGRSRQAPGTERELVAAISWRGGSTYYADSVKGRFTISRDNAKNSVYLQMNSLKPEDTAVYYCNADWYPYDQMYYWGQGTQVTVSS
- polyreactivity (PSR sort gate): low polyreactivity

Sequence: QVQLVESGGGLVQAGGSLRLSCAASGRTLGYKAMVWYRQAPGKERELVAAISWSGGATYYADSVKGRFTISRDNAKNTVYLQMNSLKPEDTAVYYCAALNNRYPLYNYWGQGTQVTVSS
- polyreactivity (PSR sort gate): low polyreactivity

Sequence: QVQLVESGGGLVQAGGSLRLSCAASGRIFRRYAMGWYRQAPGKERELVATISRGGSNTSYADSVKGRFTISRDNAKNTVYLQMNSLKPEDSAVYYCAKGSVRYYVGFDYWGQGTQVTVSS
- polyreactivity (PSR sort gate): high polyreactivity

Sequence: QVQLGESGGGLVQAGGSLRLSCAPSGSPFPYYVMGWYRPAPGKERELVAAISKSGGSTYYADSVKGRFTISRDNAKNTVYLQMNSLKPEDPAVYYCAAAIRSYRGPRFNYWGQGTQVTVSS
- polyreactivity (PSR sort gate): high polyreactivity

Sequence: QVQLVESGGGLVQAGGSLRLSCAASGRTFTRNAMGWYRQAPGKDRELVAAISYSGGSTYYADSVKGRFTISRDNAKNTVYLQMNSLKPEDTAVYYCNAATSRRSIRYDYWGQGTQVTVSS
- polyreactivity (PSR sort gate): high polyreactivity

Sequence: QVQLQESGGGLVQAGGSLRMSFAASGNIFDADIMGWYRPAPGKEPELVASITDGRRTNYADSVKGRYTIRRDSEKNTVYLQMNSLKPEDTAVYYCAAIAYPVVPTFVDFDSDYFHWGQGTHVTVSS
- polyreactivity (PSR sort gate): high polyreactivity

Sequence: QVHLVESGGGLVQAGGSLRLRCAASGSIFLLYAMGWYRQPPGKGRELVAAITYSGGRTYADSVKGRFTISRDNAKNTGYLQMISLKPEDTAVNYCATDAPAPKYDYWGQGTQVTVSS
- polyreactivity (PSR sort gate): low polyreactivity

Sequence: QVQLVESGGVLVQAGGSLRLSCAASGFIFAKYAMGWYRQAPGKERELVAAINGRGTSTYYADSVKGRFTISRDNAKNTVYLQMNSLKPEDTAVYYCAARLRSGYHGQYDREDYWGQGTQVTVSS
- polyreactivity (PSR sort gate): high polyreactivity

Sequence: QVQLVESGGGLVQAGGSLRLSCAASGRIFTPNAMGWYRQAPGKERELVAAITWSGDNTYADSVKGRFTISRDNAKNTVYLQMNSLKPEDTAVYYCAAAYGYGHKKYGYWGQGTQVTVSS
- polyreactivity (PSR sort gate): low polyreactivity

Sequence: QVQLVESGGGLVQAGGSLRLSCAASGSIFWYYVMGWYRQAPGKERELVAAITISGAGTYYADSVKGRFTISRDNAKNTVYLQMNSLKPEDTAVYYCAARLLGHFYPFFLQGLSGFDYWGQGTQVTVSS
- polyreactivity (PSR sort gate): low polyreactivity

Sequence: QVQLVESGGGLVQAGGSLRLSCAASGSTIDHNAMGWYRQAPGKERELVATISSSGGSTYYADSVKGRFTISRDNAKNTVYLQMNSLKPEDTAVYYCAVRAYYWRSYPYNYWGQGTQVTVSS
- polyreactivity (PSR sort gate): high polyreactivity

Sequence: QGQLEESGGGLVQAGGSLRLSCAASGRTFGPYAMGRYRQAPGKERELVAAIRSAGSTYYADSVKGRFTISRDNAKNTVYLQMISLKPEDTAVYYCADDIARHLTGFAYYRLDYWGQGTQVTVSS
- polyreactivity (PSR sort gate): low polyreactivity

Sequence: QVQLVESGGGLVQAGGSLRLSCAASGSTVKRNAMGWYRQAPGKERELVAAITQSGGSTYYADSVKGRFTISRHNAKNTVYLQMNSLKPEDTAVYYCAASDFRGRRYDYWGQGTQVTVSS
- polyreactivity (PSR sort gate): high polyreactivity

Sequence: QVQLVESGGGLVQAGGSLRLSCAASGIIFGTYAMGWYRQAPGKERELVAVITSGAGRTYYADSVKGRFTISRDNAKNTVYLQMNSLKPEDTAVDYCAARVWYPRYDYWGQGTQVTVSS
- polyreactivity (PSR sort gate): high polyreactivity

Sequence: QVQLVESGGGLVQAGGSLRLSCAASGSTFRYYAMGWYRQAPGKERELVAAITYRGSSTYYADSVKGRFTISRDNAKNTVYLQMNSLKPEDTAVYYCARRYAGDYYYWGQGTQVTVSS
- polyreactivity (PSR sort gate): high polyreactivity

Sequence: QVQLVESGGGLVQAGGSLRLISAASGSIFAKYAMGWYRHAPGKERELVAAITGSGGSTYYADSVKGRFTISRDNAKNTVYLQMNSMKPEDPAVYYCAKRRPRYTYNYCGQGTQVTVSS
- polyreactivity (PSR sort gate): high polyreactivity

Sequence: QVQLVESGGGLVQAGGILSLSCAASGNTFKGNAMGWYRQAPGKERELVAAISWSTDSTYYADSVKGRFTISRDNAKNSVYLQMNSLKPEDTAIYYCAADYSHLPIAWYYYWGQGTQVTVSS
- polyreactivity (PSR sort gate): low polyreactivity

Sequence: QLQLVESGGGLVQAGGSLRLSCAASGRTFQPYAMGWYRQAPGKERELVAAITSIGGSTFYADSVKGRFTISRDNAKNTVYLQMNSLKPEDTAVYYCAADPYTLYWYYWYGTSGFDYWGQGTQVTVSS
- polyreactivity (PSR sort gate): low polyreactivity

Sequence: QVQLVESGGGLVQAGGSLRLSCAASGNTFYHYAMGWYRQAPVKERELVAGIRYNGGSTYYADSVKGRFTISRDNAKNTVYLQMISLKPEDTAVYYCATRGRTAWYTMDYWGQGTQVTVSS
- polyreactivity (PSR sort gate): high polyreactivity

Sequence: QVQLVESGGGLVQAGGSLRLSCAASGFIFSYYAMGWYRQAPRKERELVAAISKRGGGTYYADSVKGRFTISRDNAKNTVYLQMNSLKPEDTAVYYCNKDGGYGTGSSREYDSWGQGTQVTVSS
- polyreactivity (PSR sort gate): high polyreactivity

Sequence: QVQLVESGGGLVQAGGSLRLSCAASGSIFNPYAMGWYRQAPGKQRELVAAISYTGGRTYYADSVKGRFTISRDNAQNTVYLQMNSLKPEDTAVYYCIADYIYSFYWSFYEYDYWGQGTQVTVSS
- polyreactivity (PSR sort gate): high polyreactivity

Sequence: QVQLVESGGGLVQAGGSLRLSCAASGSTSSTYAKGWYRQAPGKERELVATINWDGASTYYADSVKGRFTISRDNATNTVYLQMNSLKPEDTAVYYCAAQSGAVHFLEDDYWGQGTQVTVSS
- polyreactivity (PSR sort gate): low polyreactivity

Sequence: QVQLVESGGGLVQAGGSLRLSCAASGSIFYSYAMGWYRQAPGKERELVAAISSGGRTKYADSVKGRFTISRDNAKNTVYLQMNSLKPEDTAVYYCAASDRYGGRDYWGQGTQVTVSS
- polyreactivity (PSR sort gate): high polyreactivity

Sequence: QVHLVESGGGLVQAGGSLRLSCAASGFTLRHNTIGGYRQSPGKERELVAAISIGGRTYYADSVKARFTISRDNAKNTGYLQMNSLKPEDTAVYYCGKLDRGQSPRYDFWGQGTQVSVSS
- polyreactivity (PSR sort gate): high polyreactivity

Sequence: QVQLVESGGGLVQAGGSLRLSCAASGLIFPPNVMGWYRQAPWKERELVAAITSSGSTKYADSVKGRFTISRDNAKNTVYLQMNSLKPEDTAVYYCARDQTWSYQPWYYLSYPQYEYWGQGTQVTVSS
- polyreactivity (PSR sort gate): low polyreactivity

Sequence: QVQLVESGGGLVQAGGSLRLSCAASGSIFKYYSMGWYRQAPGKERELVADISRSGGRTYYADSVKGRFTISRDNAKNTVYLQMNSLKPEDTAVYYCAALDTYQYFRILYGTYEYWGQGTQVTVSS
- polyreactivity (PSR sort gate): high polyreactivity

Sequence: QVQLVESGGGLVQAGGSLRLSCAASGSTFVYAMAWYSQAPGKERELVAAITTGDSTYYADSVKGRFTISRDNAKNTVYLQMNSLKPEDTAVYYCAAQWYTRYGEYGYWGQGTQVTVSS
- polyreactivity (PSR sort gate): low polyreactivity

Sequence: QVQLVESGGGLVQAGGSLRLSCAASGRTFDAYAMGWYRQAPGKERELVATITSGGGTYYADSVKGRFTISRDNAKNTVYLQMNSLKPEDTAVYYCKKRYVVSRKYDYWGQGTQVTVSS
- polyreactivity (PSR sort gate): low polyreactivity

Sequence: QVQLVESGGGLVQAAGSLRLSCAASGLTFPFYTMGWYIQAPGKARELVAAISRRGGSTYYADSVKGRFTISRDNAKNTVYLQMNSLKPEDTAVYYCAADKYSWYDYWGQGTQVTVSS
- polyreactivity (PSR sort gate): low polyreactivity

Sequence: QVHLVESGRGLVQAGGSLRLSCASSGSIFSRYAMGRYREAPGKVSELVAAISRRGGRTYYADSVKGRFTISRDYAKNTVYLQMKSLKPEVTAVYYCNDRRYNVPHPNRYDYWGQGTQVTVSS
- polyreactivity (PSR sort gate): high polyreactivity

Sequence: QVQLVESVGGLVQAAGSLRLSCAASGRIFSPYAMGWYRQAPGKESELVAAISWSGGTTYYADSVKGRFTISRDNAKNTVYLQMNSLKPEDTAVYYCAADLGYQDPLDYYWGQGTQVTVSS
- polyreactivity (PSR sort gate): high polyreactivity

Sequence: QVQLVESGGGLVQAGGSLRLSCAASGRTFYPSAMGWYRQAPGKERQLVAAITTSGGRTYYADSVKGRFTISRDNAKNTVYLQMNSLKPEDTAVYYCAKAYREGEGKFDYWGQGTQVTVSS
- polyreactivity (PSR sort gate): high polyreactivity

Sequence: QVQLVESCGGLVQAGGSLRLSCAASGRTIASYAMGWYRQAPGKERELVAAITSGGSTYYADSVKGRFTISRDNAMNTVYLQMNSLKPEDTAVYYCARKHAIWRGYDYWGQGTQVTVSS
- polyreactivity (PSR sort gate): low polyreactivity

Sequence: QVQLVESGGGLVQAGGSLRLSCAASGFIFQWYAMGWYRPAPGKERELVAGISAGSTNYADSVKGRFTISRDNAKNTVYLQMNSLKPEDTAVYYCAARDYYIPYYSPGYPYDYWGQGTQVTVSS
- polyreactivity (PSR sort gate): high polyreactivity

Sequence: QVQHVESGGGLVQAGGSLRLSCAASGRIFVPYTMGWYRQAPGKERELVAAISRSGGSTYYADSVKGRFTISRDNAKNPVYLQMNSLKPEDTAVYYCAARATNVYSKMDYWGQGTQVTVSS
- polyreactivity (PSR sort gate): high polyreactivity

Sequence: QVQLVESGGGLVQAGGSLRLSCAASGRTFRGYSMGWYRQAPGKERELVAAISSSGGRTYYADSVKGRFTISRDNAKNTVYLQMNSLKPEDTAVYYCNAYYWSATWYFAAWDYYYWGQGTQVTVSS
- polyreactivity (PSR sort gate): high polyreactivity

Sequence: QVQLVESGGGLVKAGGSLRLTCAASGIILRANVMGWYRQAAGKERELLAAISGSGGRTYYADSVKGRFTISRDNAKNSVYLPMNSLKPEDTAVYYCNTPYGLHQAYPYDYWGLGTQVTVSS
- polyreactivity (PSR sort gate): high polyreactivity

Sequence: QVQLVESGGGLVQAGGSLRLSCAASGFTFQNYVMGWYRQAPGKERELVAAINSGGRTYYADSVKGRFTISRDNAKNTVYLQMNSLKPEDTAVYYCNAVQPATYKYRSHVIEYDYWGQGTQVTVSS
- polyreactivity (PSR sort gate): high polyreactivity

Sequence: QVQLLESGGGLVQAGGSLRLSCAASGRIFGRYAMGWYRHAPGKERELVAAISQSGARTYYADSVKGRFTFSRDNAKNTVYLQMNSLKPEDTAVYYCAARYKALYDYWGQGTQVTVSS
- polyreactivity (PSR sort gate): high polyreactivity

Reference: the nanobody polyreactivity screen of Harvey et al. (2022)
